B1: wild type Lck (WT) [not stated] / receptor for activated C kinase 1 (RACK1), endogenous in NIH3T3 [mouse (endogenous in NIH3T3)] (parent)
chain 1: MGCVCSSNPEDDWMENIDVCENCHYPIVPLDSKISLPIRNGSEVRDPLVTYEGSLPPASPLQDNLVIALHSYEPSHDGDLGFEKGEQLRILEQSGEWWKAQSLTTGQEGFIPFNFVAKANSLEPEPWFFKNLSRKDAERQLLAPGNTHGSFLIRESESTAGSFSLSVRDFDQNQGEVVKHYKIRNLDNGGFYISPRITFPGLHDLVRHYTNASDGLCTKLSRPCQTQKPQKPWWEDEWEVPRETLKLVERLGAGQFGEVWMGYYNGHTKVAVKSLKQGSMSPDAFLAEANLMKQLQHPRLVRLYAVVTQEPIYIITEYMENGSLVDFLKTPSGIKLNVNKLLDMAAQIAEGMAFIEEQNYIHRDLRAANILVSDTLSCKIADFGLARLIEDNEYTAREGAKFPIKWTAPEAINYGTFTIKSDVWSFGILLTEIVTHGRIPYPGMTNPEVIQNLERGYRMVRPDNCPEELYHLMMLCWKERPEDRPTFDYLRSVLDDFFTATEGQYQPQP
chain 2: not shown

Variants of: B1
Assay: co-immunoprecipitation (IP: RACK1, blot anti-Lck), quantified
Settings: with receptor for activated C kinase 1 (RACK1), NIH3T3 Lck infectants, three independent experiments, mean ± SD, parent: 1, read off a plot

Variant | screen value
chain 1 Y505F | 1
chain 1 R154K Y505F | 0.38
chain 1 W97K Y505F | 0.12

Reference: publication PMC5081367
